2 substances from patent US5972698 can be followed below.

For test [1], the target named is human tryptase (purified from human lung tissue) (human) (UniProt Q15661).
In test [2] the target is bovine trypsin (bovine) (UniProt P00760). The experiment in a line: enzyme inhibition, steady state velocities on Tos-Gly-Pro-Arg-pNA, tight binding fit.
For test [3], the target named is human tryptase (purified from human lung tissue) (human) (UniProt Q15661). Described as above.
For test [4] the target is unchanged. The source holds these as a separate data set.
For test [5] the target is unchanged. The experiment in a line: enzyme inhibition, steady state velocities on Tos-Gly-Pro-Arg-pNA, tight binding fit; Ki for the inhibition of two of the four subunits of the tryptase-tetramer.
Test [6] addresses human thrombin (human) (UniProt P00734).
The target of test [7] is human cathepsin G (human) (UniProt P08311).
The target in test [8] is human plasmin (human) (UniProt P00747).
The target in test [9] is porcine pancreatic kallikrein (porcine) (UniProt P00752).
Test [10] concerns the target human plasma kallikrein (human) (UniProt P03952). Put plainly: enzyme inhibition at 0.2 µM inhibitor, Table 5.
The target in test [11] is human thrombin (human) (UniProt P00734). The experiment in a line: enzyme inhibition at 0.2 µM inhibitor, Table 5.
Test [12] concerns the target human cathepsin G (human) (UniProt P08311). Put plainly: enzyme inhibition at 0.2 µM inhibitor, Table 5.
The target of another test is human factor Xa (human) (UniProt P00742). Put plainly: enzyme inhibition at 0.2 µM inhibitor, Table 5.
The target in a further test is human urokinase (human) (UniProt P00749). Put plainly: enzyme inhibition at 0.2 µM inhibitor, Table 5.
Test [13] deals with porcine pancreatic elastase (porcine) (UniProt P00772). Put plainly: enzyme inhibition at 0.2 µM inhibitor, Table 5.
Test [14] addresses human plasmin (human) (UniProt P00747). Put plainly: enzyme inhibition at 0.2 µM inhibitor, Table 5.
Test [15] addresses porcine pancreatic kallikrein (porcine) (UniProt P00752). The experiment in a line: enzyme inhibition at 0.2 µM inhibitor, Table 5.
Test [16] has as its target human neutrophil elastase (human) (UniProt P08246). The experiment in a line: enzyme inhibition at 0.2 µM inhibitor, Table 5.
Test [17] concerns the target human tryptase (purified from human lung tissue) (human) (UniProt Q15661). This is another data set of the same source.
The target in test [18] is bovine chymotrypsin (bovine) (UniProt P00766). The experiment in a line: enzyme inhibition, steady state velocities on Suc-Val-Pro-Phe-pNA, tight binding fit.
Test [19] concerns the target human tryptase (purified from human lung tissue) (human) (UniProt Q15661). This is another data set of the same source.
The target is the same in test [20]. Put plainly: enzyme inhibition, tos-Gly-Pro-Arg-pNa as substrate.
Test [21] has as its target bovine trypsin (bovine) (UniProt P00760).
Target sequence in this assay (P00760 24-246): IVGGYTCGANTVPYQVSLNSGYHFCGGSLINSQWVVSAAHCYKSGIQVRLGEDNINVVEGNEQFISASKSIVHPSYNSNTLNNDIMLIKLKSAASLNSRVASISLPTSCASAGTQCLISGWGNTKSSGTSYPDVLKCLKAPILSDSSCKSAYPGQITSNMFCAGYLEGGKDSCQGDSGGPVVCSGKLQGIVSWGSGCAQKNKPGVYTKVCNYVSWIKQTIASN

Read-outs that look alike come from different tables or passages of the source. A value given as a limit tells only on which side of the number the result lay.

Sequence of recombinant leech-derived tryptase inhibitor form C, secreted by Saccharomyces cerevisiae (strain S-78 with pRM 9.1.4) (chain): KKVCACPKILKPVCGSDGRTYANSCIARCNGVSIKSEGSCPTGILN

For orientation: Ki means a dissociation constant, usually derived from enzyme kinetics or from competition with a known ligand. “leech-derived tryptase inhibitor (isolated from extract of the medical leech Hirudo medicinalis)” registered an amidolytic activity of tryptase on tos-Gly-Pro-Arg-pNa in test [1] of 50%. Besides, the Ki in the test with bovine trypsin (bovine) [2] turned out to be 0.9 nM; in test [5], 1.4 nM; in test [18], 20 nM. Besides, the values for the Ki [nM], first of the two columns so headed (in the test with bovine trypsin (bovine) [2]; in test [3]; in test [18]) were 4.7 nM, 1.8 nM and 137 nM, respectively. Also, in [4], the tryptase-induced breakdown of vasoactive intestinal peptide (VIP), reversed phase HPLC came out at 66%. The substance also registered an amidolytic activity of thrombin on Tos-Gly-Pro-Arg-pNA, inhibitor at 0.2 µM with human thrombin (human) [6] of 12%. This substance also had an amidolytic activity of cathepsin G on Suc-Val-Pro-Phe-pNA, inhibitor at 0.2 µM in test [7] of 11%. Besides, the amidolytic activity of plasmin on Tos-Gly-Pro-Lys-pNA, inhibitor at 0.2 µM in the test with human plasmin (human) [8] amounted to 30%. The amidolytic activity of tissue kallikrein on D-Val-Leu-Arg-pNA, inhibitor at 0.2 µM in test [9] turned out to be 14%. In addition, the Ki relative to the complex with tryptase (times higher) (in test [10]; with human thrombin (human) [11]; in test [12]; with human factor Xa (human); in the test with human urokinase (human); in test [13]) was above 200 times each time. For the same substance, the Ki relative to the complex with tryptase (times higher) (in the test with human plasmin (human) [14]; in test [15]; in test [16]) was above 200 times each time. In [17], this substance had a tryptase-induced growth of HaCaT keratinocytes (3H-thymidine incorporation) of 99%.
In [19], “recombinant leech-derived tryptase inhibitor form C, secreted by Saccharomyces cerevisiae (strain S-78 with pRM 9.1.4)” gave an amidolytic activity of tryptase on tos-Gly-Pro-Arg-pNa of 50%. In test [20], this substance yielded a Ki of 1.9 nM. In addition, the trypsin inhibition assay (residual trypsin activity on Tos-Gly-Pro-Arg-p-NA) with bovine trypsin (bovine) [21] worked out at 60%.
